Measured values as given in the NTF2 design screens of Basanta et al. (2020).

Experiment: protease stability score; higher = more stable; yeast display proteolysis, trypsin and chymotrypsin;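 note: relative to predicted unfolded state with 0 unfolded-like and 1 meaning tenfold more protease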

Row | Sequence | protease stability score
1 | HEDEEIIERILREFLHYQNTGDEDELRKLADPNVRVIQGDKHFVGREEFRRWVHEHLSQVDHVELEIEDMRIVGDFVEIRGKLHNKAEGRSIKEEVRLVLFKFDGRWTLHDVRVH | 2.09
2 | HEDEEISQNMMETMLRIIHTGDWHRFTELFDPHVRIEVNIGDKHLESVGREEARKWLERFKNRRTEIRDAKVRVQGDKVEIRIDGNVNVDGKEKHVEIILYIEKIDGRWLVHSVIIIIE | 2.13
3 | HEDEEIVKTFAKIRTELERTGDWETIMRLLDPHVRMDIDGVRVHGMEEVVRHIREFEEKFGVTNVQSRFRDVRIIGDKVDIHSQVHINGVEKNLHIHVEKFNGKWVITEIKIE | 1.28
4 | HEDEEKVKNMVRHEIQALQTGDWDHWLNLADPHVKLYIDGRINHGRHVIRFLVERFDHFRIDHYEVRSINHVDGRVRVNTQLHGQETINGVHEKHTVEVEMTIIKVNGRWYIEHLELE | 1.2
5 | HEDEELMKELLKRWLNMLETGDWQNLAHYADPHVRLEFDGREIHGRTEVYRVLVEFHDKIKGMTYILKHSFYVGDKIHIKGSIRIGDKEYDTEIHIIIVDGRLKEVRVEHR | 1.98
6 | HEDEELSEKWLEDILRDHETGNEHRLRELFDPDARSHVGDKKIIGREDWSRALKEFIEKFPGVRIEIRHHENDIVGDKVRLDVTIILNFNGVEHEMKVTLILRKYNGRWRIREIRIR | 1.25
7 | HEDEELSEWMEREMIDIMRTGDEHRFLRMADPNTRFEFNGKDIHGRERVLDVLEFLGIDHMEFEDSKVRLYDGRVEVRLEGRINVGDKQSESRITIKAEKINGRWVLHEVSIEHH | 0.821
8 | HEDEELSRKAVELMLELIMTGDEDTIRSLADPDTRIEINGRHHHGRHLMVEFMREWFRRYPNVQLDVHSLDIDLFNGRVLIQINLEIRIGDKHHRVRINIHADKVDGRWRLKEVRIEIK | 1.5
9 | HEDEEMLHRLAELVEELFRTGDEEMHDHLMDPHARINIDGRDLHGRENMRILWQKLGIERVHVEFHDVKAIGDKASVHTFLEVNGVKVEILIRSEKINGRWVITQINIVFH | 0.386
10 | HEDEEMSQRMLDELMRFSRTGDWQRSAELADPHVRIIIGDKHLHGMEHWSELLKRIDHSHFHLRHVDIFENHIRLQGELRLHINGVEHRHEVIIKAHKVDGQWILESVEIR | 0.768
11 | HEDEESMEHSIRRLIQAIETGDFHELTELADPHVKLTIGDKEYIGREQWEKTLRDLGIDHFDVKRSKLIGDYARVDGKVNVNGQFRDTTVIMKKVDGKWLIRSWHVH | 1.91
12 | HEDEEWAEKMVREFLEATRTGDFESTLQLADPHVRFIINGKDIHGMEDWQEHLEHIRIQYHDIRIEHREVIGDKIYVKTRIDVTIHINGRKHRTVLDVEFIIHKVNGRWIIRELEIR | 1.61
13 | HEDEHELRHAVELFIWLIHTGDWHTELRLADPDVRHEVNGVENHGRELMLEDLQRIKNIRFHVRRVEIRVYGDKADLHIHGRKIVDGRHKELEIHVHIRKVNGKWLLHEVEVNIR | 1.59
14 | HEDEHKWERAFRIWIHALITGDEETTNELMDPNTRLNFNGVDFIGREDMIELIRHIRIHREHITHVEIRTFNGVLHVHMHVRRDGNINGQRRNTDVEIHIVIFKVNGRWVLHSTTIVVN | 2.23
15 | HEDEHLMKRVAELIFRLLVTGDEDRMRDLLDPTTRMDINGKEFHGRDQVIEVWRRLIDHIRIEEVHLEDHDIYGDKVRWHMRIRTRQGDKQLHLETRFTADKFNGRWELQTVIFK | 1.64
16 | HEDEHLSRRFAELVLTYLETGDEDSILEMADPHVRTELIIGDKTFRYIGRENLERWLHEVLRKFKNLRFVPKRLHIQGDKVIMRGYVIFDGRTHETEMIWIVINGRIHAVLHHEH | 1.81
17 | HEDEHQAEHLLEAVFHIFLTGDWRSLHELVDPNVRFDVNGRRTHGREDLIRFSRELRIHDVRFHRVKLDVYDGRVEMRIDGRIDGEINGRRTDVRSIIEIEFIKFNGQWRVESISLNFH | 1.44
18 | HEDEHYMQRIAEDILKSFLTGDFDHIYRMADPHVKLIVGDKESIGRDDMETMLRIWLEILGADHLEVKDLKTRLVGDKIEVNVDNRIQIGDKLINVKIEIIFEKVNGRWKVSRITLKLR | 1.5
19 | HEDEKEAEDAVREFLHNVSTGDEERMLELMDPNARLIYNGREYHGRELITHLIRELGVKVVRWRHLEVQGEKVHVDLRDTVGDKTIKTHLIFHKINGKWKVDEVKFD | 2.26
20 | HEDEKIARELTELLLHHFHTGNEESLSKLMDPNVRVIAENHELHGMEKKIEKNRKYLKDLGVDHFSFELRHLDLQGDKARVEGIEHWTINGQHHERHMVLHIVVVNGRLQESSIEIR | 0.929
21 | HEDEKVLKEMLRILAEVITTGNEEVMKRLADPHVRIDWNGRDIIGMEERYRKLREMGIEFEVRIHLRDTRSVGEKVEFITQLDVHIRVGDKTINFHQETRVDMEKVDGRWRVNEEKVV | 0.415
22 | HEDEKWMKHMLEMLIRSILTGDEETLHKLADPHVRLEINGQEYWGREQFTHAITQFIRHIRIDSIHVHDYHIQGEKVDFDMRSKFTINGQVDTSRLRVFILKVDGRWVVEEVIIR | 2.27
23 | HEDEQLAREFVEHLTENLRTGNEERIAELADPHVRVDIGDKHLHGWEWLRRRVRELRFHDLIIHHVEVIDGRIIFRGRMDGRVNGRHTQTEVRVELDKIDGRWTIRHIEIR | 2.01
24 | HEDERAFEHFIELLMHTLRTGDEELWKHLADPNYLLDVGDKHFIGRERVVEWIRHIRIKDVRVEHYKIQGDKAEIHTRVDGNIDGKELNLHSRFKMHKVDGRWLLEEVEFR | 2.22
25 | HEDERDAEEMLRLIEEAVYTGDEDLTKYLMDPNVRIHVGDKEFHGRDFLIMRLLEIRHHRFRLELHDIRIQGNKVILDVRWRLDGEINGQRFDDTWDVIIIAEKVNGQWRVQTLIIR | 2.59

Row | Sequence | protease stability score
26 | HEDERHLHEIIKRWFEALLTGDEHVLERLLDPNARIDIDGREFIGMEKFAHDISRIKNMQIKHHHIKHVRYVDGVMHWHGQRHGVVNGQEKNVEVIINLFVYDGRFKSMHIKDD | 1.06
27 | HEDERLMKEALEMIIESFRTGDEHTIEELADPHARVIVGDKHHHGWHELLKRVLELGVKHVNVRDMRVIGDKLEVKLELHVGDKTFDSRLHVLKVNGKWHIQFVEIH | 1.75
28 | HEDEVFFKLILHLLLEDYRTGDWESLEKFLDPSYKLVFDGKDIHGRERAVTIMRHEAHEMRIEDYHIRSLETQGDKLLLHGKFQGIVNGQRRESEIHLVILKVDGRWLWHSVQIN | 1.01
29 | HEDHERVRHIIERWWHILETGDEDEMEDMADPNVQIYIGDKRHHGREILAEHVRKFKGKKVNIKRLDIQGDKFRVDGDVHYDGRHHRVRIEIDVVDGRIKRLRIEIE | 1.38
30 | HEDHKFLNEFVELWLRAEHTGDEDWLEENADPNTRVEVNGKSIHGMEYELRHLHHVLDRFKNMTFDTTVTRIDQQGDKAKVKVEIRLDIDGKDIRLEVDLIITKINGRWIVREIRYK | 1.22
31 | HEDKKSLEDFLELLLHAIATGDEEILRHLLDPNVRLDIDGRHVVGREELLRWFREIRVKRSDIRIDHFHVQGDKIHADVTDLYDGEFNGKRHLMVLKTELILVKFNGRWHIRTMHFH | 2.23
32 | HEDKQMMEEAVKLWIETSLTGDWRTFHRLADPHVKLQQGDKDLHGREDTRELMEKLGLDRVDIHIRKFRLYDGRIELHVEENFNGKVFEIFIDMRKVDGRWELHRVELR | 1.43
33 | HEDNDIMEKAMEDILEKIVTGDEDFLREQMDPHVRSVDIINGRRIERHGREDILELLRRLGFDHVRLERYDIQGDKLIVHSKFTYGDKETELRIIIWKVNGRWVFHSVEVIIL | 1.87
34 | HEDQERLKRFLEFYVHLINTGDEDRIRDLIDPHARVDIDGRIYHGREMYTQAYRDLGIDYLEIKRWEIQGDKVHLDTRVHIDGVERQTHLIIMKFNGRWIVHTMEVQ | 1.56
35 | HEDRKLEREIAEEMVKLWLTGDETRFEQLADPHVRVEDGDKESHGRENFSKLVRHRKTEFGIDHIEVEDIRVYDGRVEIRVRMEIGEKETHVRIIQVVINGRLKSVHLHFR | 0.771
36 | HEDYEDLDKLREHLLTAMKTGDWEVMYRNFDPHVRLLYNGKDTHGREDLRRLVEEMRTRDVRIIITREEIQGNKVFMHGTLEVDGNWNGVDRHIHREVTHIMVKIDGRWIVTVERIR | 0.899
37 | HEEDEDAERAMRILVEWTKTGDEDKLRRNMDPNVKLWIDGQELHGRDSFKHLLTRFKNVKFEISDIRVLNHEEVVEIQLDTHLRIDGREHRVEIILIVIKVNGKWVMKLVEVRVR | 2.12
38 | HEEDEMAIKIVELFIHALHTGNEELLHNLLDPEVRLTVDGRRIHGRHWVLRELLHIRVHDIHWTDIDKVNGKIELHTRQDGDVDGRRHEVNVTLVVIKVDGQWILHSVMVE | 2.09
39 | HEEDERIEHFFELYKRSLKTGNEEIIEYLFDPHVRYEQGDWEVHGRTEFIEMLKHLRFHTVRLRDYRLIGDYVHLDIELEGRVGDKNLHVKSTLIALKVDGRWRIHTLEIE | 0.772
40 | HEEDHHMEIAIELNQRMLQTGDEELLEKLADPSVRLKQGDKDVHGRHVVSRWLHEVIMKFPNVTIIERHVRIIDGKVHFHGDWHFNGVDQHVTIIAEKVNGRWILKTIELK | 0.983
41 | HEEDKWMKEVLYRFYEHYQTGDEDSLVKLMDPHAKLSFEGRENHGRDAIKTYWDIMGFDHLRLRDYEIRIIDGRAHLIVDTEIEIGDKRRRTIIIMHVLKFNGRWIVTHFHVEVR | 0.835
42 | HEEEEEAERFVKEIIHSWKTGNEDDMHRLVDPNVRLIIGDKTYHGRENFVKHMEEWLQRAGVKHFHLRKVDVFDGKLDIHSEVRQGSDETELHISVEKINGRWRLQLVIIV | 1.7
43 | HEEEEEARDLLKKLLEDFETGNEESLHEYADPNTRTIWDGVEFHGREWMLEIIKQIRVHSVHIHDVRLIDGVLIVKGRMDGDINGQRHTLEVNIFFLKINGRWFFHHMEFE | 2.51
44 | HEEEEEARRFSTLFNRAMLTGDEDELKEYADPHVRIDINGVILHGRERLREWLEKYLKEIRWHDFKIEHVDVQGDKVDIKVNVDGHINGRRTTRETEIRVEKIDGRWVIREIRFR | 0.673
45 | HEEEEEFKHVVKEVKEFSETGDWDVLNELMDPHVRLFVNGRLHHGREQISEFWHKVKNVTLIIRHIRPVGEKLEVDGEMKFDGKNIEARIHAQKIDGRWITREYRII | 1.12
46 | HEEEEEIKEATRLFEEIHRTGDERESREMIDPNALFEVGNFKDHGWDSIHVLMRRVKNVKITLDDFKIQGDKVHLHITENFNGKRVHVTIIAVKINGVWFVHKIRYD | 1.44
47 | HEEEEEIVRHLEKLLRDLWTGDWDDIEHNLDPNVRIEYGEKTRVGREKFVKTFFDMGMKLRHVRINEFHVVDGRLHVDTRIDGNFNGVEFRTRVEIIAVKINGKWVLHSVHIL | 1.22
48 | HEEEEEVKEALKELKELLETGDEDLWRRLADPDTRFELEFEGRHFHLHGWEAVLHFIREIKRRFKNVQFDWKRLNTQGNFAHMHVEIRVGDKIIHLDIIVLKYNGQWLDKRVRIFFE | 1.91
49 | HEEEEFSRRLAEMLFEFWLTGDEDALERLIDPNARVEMSINGRDFHTHGRDHIIEWVRKIKNLVFRIRRVEIQGEKIILDGEFDVNGVRTRWKLNLVFIDGVVHRLNIIHV | 1.72
50 | HEEEEHIWRMFKLFIHYLLTGDPDMLARYADPNVRLDINGQEWHGREEMFEMLKIFFDELRIKHFHLRRWRVVDGVAHVDVETHGNYNGREETRKVHIHVVIFNGRMKELVIKIS | 2.66
